The domain aggregation screens of Martell et al. (2025)

Test: soluble fraction after stress (log2 fold change); higher = more stays soluble; pooled small domains, quantitative proteomics
Settings: stress: pH 4
How it was run: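 Custom libraries of small protein domains were pooled and exposed to pH 4. High-throughput quantitative proteomics then measured the log2 fold change in the amount of each domain still soluble, with higher values meaning more stayed soluble. This soluble-fraction fold change stands for aggregation propensity.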

Sequence	soluble fraction (log2)
HMEYSKSIKRLREDKNLTVEELAKRLSLDVEEIQKAEDGEDVDQKTLEAIARYFGVQYDSLVEGTAKSK	-0.258
HMTGMEKFLTIPSIRESTAAFEREYLIHYLDENAWQVSKTAAAIGIERTTLYKKMKQLGIVPIEE	-0.166
HMTGAEGKLARYLLTVPSGEPLRLSATDLAKRLGISRASLYRAFQALEDARLIRREGKSMYVLDPAGLEGV	≥ 0.43
HMGAEIRDKVRAALAGLNPRAAEIFVMRYFDGYGNREIARLLNTSWSTIAVTLHRTRAKLQKELK	0.0552
HMSELADDPVYTALEKAADKAGLQLTVRILNDLADAVLKRGKKKLTAAQAGKVIARAESELAKSRID	≥ 0.43
HMGITPSIEMILEYFAFKESSETEANKFFNYYSSIGWLVGGKTKMKDWKASARNWIMNQNKFQ	-1.01
HMGDSFLDHKKELQSMILSRLDLSREVPDEEIKDIIDELIIAQSKKLFLSLNDRGKLRQELFYSIRK	-0.906
HMKRNLESVLDHIEGIGPKRRKALYKHFGNLDAMRVAELEELESVEGMNKKAALAVYEFFRRNS	0.411
HMGGGEYTVAKGDTLWKIAAQTLGSPTRYAEIYNLNKDVIEETARGRGKRDSSNGHWLFPGTALKIPGT	-0.234
HMGSLPPPKDGTTIYVVKPGDSLWRISGKFFGNPLFWPRLWEINPNIDNPNKIYPGDVISLKP	0.219
HMADFYEVLGVERNASSDQIKRAYRKLARELHPDVNLDPVAQNRFKEVTEAYEVLSDPNKRSNFDRG	-0.0615
HMNSNTIIFSQFLSEVDNGRVTQVQIQGNNIKGTLSNGKDFITYAPNDPNLIEKLTSKGVSISASPID	0.217
HMVTDVDELEKLIQKVLDSNSSQVDEYRQGKEKVFGFFVGAVMKLTKGQADPDVVNQLLKEKLSGRK	-0.0516
HMLISYRVDALANEAGLSVDTIRYYQKLGILDPPKRTGRHSEYSPDHLERLIEIRRLADAGLTLSQISEI	-2.33
HMTPNATWQDDAQNLLRDLIQHQPVLVQISAAKRLRDQAEQISRITGGETVTREHVEAAGHALGMGVT	-0.0443
HMESPVNTLPEDQRAWYKALPPELSTKTAVEAGAGVGVSERTVKRLLSNQTFFINLQRGNYRKRH	0.314
HMKKERITWDERLERFAKYITENESLPYPSSKEHAWFEENKALYDAGELESVRAQSFSFLLKILRRMNLI	-0.449
HMRTNVDISPKILEWVLSQVRNRTTNDVIETIQIWIKGEKPPTFNQVEKISKATGVPLGYFFLKTPPVED	-0.684
HMSIQDLMNSKDLSGFKVEMLSNEDIVKYKSMLQSSGFSESQAEQLALQRGLPTSELIKLRTRISDVAVT	0.17
HMHKPLRILVYEELRMLIMTGQIKPGTRMMEIDLAESMGVSRTPVREAIRQLEKDNLVTIEPRRGAYVSD	-0.761
HMVQDSEWWRNYQSAHDYFIQNGHLNVLRSDKKNTKLYNWIVGQRSSRWNSQGRINLLNSIGFIWDT	-1.65
HMKVPDVQYMNKDSAIEALTANELKYTIVEAENENVAAGVVISQSVERDSQVAPGTSVELVVSTG	-0.741
HMNMENIADKIGKIYESLPEDLKLMIKYRDIDDLTYDEIAVKADLPVGTVRSRLHRAREQLLKELEKN	-0.0554
HMNHNPSIARKISREIKRGAPPESLLNLARTVNDSYYRSLSFVSIAYSIKGKKSKELFEEAISNLT	-0.0826
HMGMTTSILDDVIGMGPKRKKALLKAFGSFGALRNATLEEIKQTHTVPEQVAEDVYAVLVQYNSKSE	-0.171

Sequence	soluble fraction (log2)
HMTYQHQSIIHRRTRGAILTAAKELLAESGISGTNMIEIADRAQVSRASLYNHFRDKHEVFLALVES	-0.407
HMVINTRHTGFVVDDLERFINFYLGLGLKLISRKVESGEYIDKLVGLKGTKLEWAKLSLPDNSMIEILKYH	-0.454
HMWPQIAGFADRFGLSDTERRIVTLMSHGRSRKIIASTLGYSQNTIRNYTRNIYAKAGVHSKQELLDLLDP	-0.117
HMHFDQILAHAMDERGMNAVQLASLTGLSSGAISRYLAGDRQPTVYSIQQIAKALGVSADYLVG	0.22
HMAGWIPVEERLPDDLTNPITRDAYVYPVTVDLGDVTDIRYYSFWRGHWYNQGPETMDDLVIAWMLLPEPY	-0.178
HMDLPDTLSMPNALKVLEDNGFPTSKAKLYKMTSQEQIPFMKYGNKLVFSRKALIEWAHKQLV	0.301
HMGSLKISNPVKDTLWIQGVDGLKSIEIYSSTGQLVKTILGNQGDVSSLPKGVYFLKINTPSESLTAKIIK	≥ 0.43
HMSMFAQQLKDLRKKIPGLTQTDMAKKLGIAKTTYASYEQGKRTPDIETQNKIADFFNVSLDYLHG	0.22
HMPKTLTEAAYEDIKQWILEGEITPGSKISLEDTASRLEVSMTPIREALTKLQQEGLVEYIPRAGWRASK	-0.294
HMRNLYEILGVSKDAPQGEIKSAYRKLAKTYHPDLNPNNEKAAELFKEINQAYEVLSDETKRRHYDQFGEA	≥ 0.43
HMPADHYEVLGIARDADAAEVKRAYRRLARESHPDANHGDSGAEVRFKAVSAAYEVLSDPERRARYDRFGH	-0.257
HMGPAVGAIRVEGNKRVEPETVRTYLTFNVGDPYDLAKVDESLKALFATGLFQDVRIRREGNTVVIVVVEN	-1.07
HMAGIPIHMSQLKQIILLLSQGYPIKGIARETGVSRNTIKGYLQTLTSQDLNVTDALKLENIQLEYLLRSP	-0.239
HMELLPFEFARANRVLLRVNESDLVVSPDANHSAVTEILRLNNNIETIKSVDAEAFDKILSSIYSG	-2
HMTELVIPDYFSKALAKNKKAKQVFEAFAYSHRKEYLQWITEAKTEETRNKRMATAIEWIAEGKGRNWKYA	≥ 0.43
HMIPTDPNGDLIKILYTSDQINELYARAKLNDVEDLFLDWTKNVLGESNFEETGPTKNEYLIPQ	-0.961
HMRADRLISMLMLLQARGKITAEELAVELGVSQRTIYRDIEALSFAGVPVYAERGPGGGIGLLEPY	-1.21
HMAEAPGSVELLAERLRPWWEIHGGEWGSKTKALRFLFGDQAPVAGSYWRALEAAIAQIESTT	-0.108
HMNNQVTFSKFLNEVEDGRVVEVNIQGNNITGVLSDGSKFKTFSPNYPNLVEKLSEKGVSINASPL	0.153
HMNPETLTNSSVIKMSKANLSDELITDMILNSPVKFDLSAGAIKTLESEGVTPAVLESMKNAASK	0.0677
HMAPEKLVHELVGLSLRAGNLDLLAATLSAHKTVLSKESTAEYVKAGLAIEPNHLPLRVLAEQDLGWS	-0.936
HMSHGNAALTPRQRLRLARLVVDDQWSVSAAAEFFRVSYPTAAKWARRYVELGPAGMADRSS	-0.0854
HMNTELSPKVWDVVQEFILYRKEIKAPMTEHAVKLLIGQLQKLSSDPDEQIEILRQSIVNGWKGIFSLK	-0.992
HMVSINETAFIQIKNSSATEIKEKITALKLDELKNVTITADIRTNKLIVVGPKATINKIQELVIELDTES	-0.49
HMGPYGAGSAAPAEDGSGPEGWTVKGNAKSMLYHTEGSPYYGRTNADVWFRDEESAEAAGFRRWDRK	0.033

Sequence	soluble fraction (log2)
HMSEQLVGTVGHITVGTARTASPAEAKFLDAFEQPHYLLVEPIEPKDIFQQGDKVVLVKKQHHSWLATRYI	0.0779
HMGPAYQTQRQEAFAALSEIAAKNPQLMQVAGDLVFRAADFPMADELADRLAKTLPPQLQDKKGQP	-0.313
HMAPDYYALLGVPRNATTAEVRKAFRGKALEQHPDRGGDEESFRLLSKAYDVLSDSERRKYYDRTG	0.14
HMGLVLIDSYNDIGSAKLITNKIRNLGLIFEENENKINVFAGPFEKNDINLKIDFLIRNGYTNAQLY	-1.92
HMGPAAGVVEKYNLAHLSTGEMIRKEIAEGSDFGKMAAGIINKGELLSDEFVVALIENSIEHHKNVDGFLF	-0.22
HMDQPLIEPLSERELEVLSLIAAGYSNAEIAERLVIAVGTVKRHINNLYGKLGAGSRTQALAIAREIGLM	-0.661
HMDGVNRDKIEYRLDDLYYLKGSDAPYTGKVFEEWSGQQRVETNYIDGKLDGLSESWHENGQKASEVNY	-0.831
HMRSFGTVAQARGRWKAFYVGPDKRRHTPGVTFSNPIRAQGWLAQELTLIELGQWTPPAQRREKAEVAS	-0.43
HMSWEELLEHLEKAAERGEEVRIAGVTLHDEEDFKRALRWLKEWL	-1.47
HMTNVVSKNKAKEIAMNIINDTVLQGQTAATFKEIVKANGVYVVKIEIQGQEYTSYITKDGKIVFPYGVEV	-0.661
HMKKYEIIFNDLKQSIVNGKYSNEERLPPEETLAKKYQTSRVPVQQALNALVGIGMVKRIAGSGTYVTY	-0.212
HMAAVEDLPVKSVNGKKYHYYTVQPKESLYSLSHKLGISRQEIIKYNPGVEDGLKAYEDLLFPYTPK	-0.419
HMHLIPRESTYEIDGRRFVVDSVNLDFGKVSLQDITFRNATGFPIFRSESIEFMRRLVEISEAQRIAEL	-0.114
HMRGLGDLEPVDSLGKIRIDDGHMVLAFGRHKGRHLSEVQAEDPRYIHWLLSPKGIEDVEAREKVKVYLEG	-0.136
HMEDIQPSVIFQNNMIDGFKKFGVSFLQNRRNVNVNTLNGLASAGTYPKWQQLLVNKISYIDMLLSTGG	-0.137
HMFSPTKLKEKRESQGLSQSQLASSLGISRASYFNWESGKTKPNQNNLSKLSEILNVDPRYF	0.0274
HMDIVLPFSFAKRHGVVLSERQGETELLYLKGLPVRVLAEARRVLRQEFTVRQVEQAVFDKALSESYQN	-0.591
HMVNFKLIGNKIAEARKKVNISQAQLAQRLFISSQAVGKWERGESMPDIITFNRLAEILGVDLNYFSE	0.266
HMSSVEVWINGKSSGLTSDNRAQILQQLPAESIERIEVIDNPSAKFSAEGSAGIINIVLKKD	-0.177
HMAPDAPDGFVHRWIRAEMLGQEDKSNVHRRMQEGYELVRADEYPDSDLPVAEGRYAGIIGVGGLLLARF	-0.268
HMVVSDSAEIDKIVQDVIAANPKAIEDFKSGKTNVTGWLMGQVMKLSHGKANPKQATEILNKYLSK	0.18
HMPGRKTTFEERLSIIEDLIKHDVNYSWAVDKYHVSYQQVYGWYQKYRKSGNDPQSLRDRRGK	≥ 0.43
HMEISLEAKMAEVREQVRGLAGINFRTLLEMQASRSNIIVTFLAILELMKIGAIQIRQEEIFGEIIIDSRD	-0.28
HMTDVRFISIPIQKEHPWNRKLVSELNLPPGTLLVFLRRTGENIVPNGKTMIQEGDVLVLGASAYR	-1.04
HMLVLAENMDVIFTRRTLDDHVVVDYKTTIGEMVKNDEIKGENMDELISAVEKDGYELVSSTSGEIIFLND	-0.704
